Experimental findings from patent US20180051053A1 are described below.

For the experiment, the target named is Protein G (Protein G UltraLink resin, Pierce) (group G streptococci) (UniProt P19909). Kind of experiment: depletion of 100 µg IgG by Protein G resin beads (10 µL suspension); supernatant read by SDS-PAGE band pixels.

Regarding IgG (antibody), the remaining antibody amount (unbound IgG left in supernatant) was determined as 3%.
